According to PMC8412382:

Molecular target: bovine albumin (BSA) (bovine, UniProt P02769 25-607)
Assay: SPR

Sequence of bovine albumin (BSA) (P02769 25-607): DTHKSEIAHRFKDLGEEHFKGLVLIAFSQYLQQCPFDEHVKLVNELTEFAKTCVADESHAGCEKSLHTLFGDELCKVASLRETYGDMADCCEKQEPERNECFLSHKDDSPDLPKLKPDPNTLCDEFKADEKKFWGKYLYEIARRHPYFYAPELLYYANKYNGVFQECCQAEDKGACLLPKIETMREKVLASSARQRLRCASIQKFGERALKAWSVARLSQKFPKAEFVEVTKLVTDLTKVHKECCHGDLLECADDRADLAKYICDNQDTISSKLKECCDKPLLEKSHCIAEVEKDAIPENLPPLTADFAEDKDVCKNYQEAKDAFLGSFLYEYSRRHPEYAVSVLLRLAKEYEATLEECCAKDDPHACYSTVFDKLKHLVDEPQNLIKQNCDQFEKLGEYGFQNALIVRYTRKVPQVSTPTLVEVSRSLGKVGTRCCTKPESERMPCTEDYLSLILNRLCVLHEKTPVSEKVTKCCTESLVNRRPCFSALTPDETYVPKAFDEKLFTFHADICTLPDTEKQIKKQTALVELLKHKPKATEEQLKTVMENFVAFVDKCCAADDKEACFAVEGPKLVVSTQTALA

B1: N58 aptamer (SARS-CoV-2-N58) (ssDNA)
DNA: GCTGGATGTCACCGGATTGTCGGACATCGGATTGTCTGAGTCATATGACACATCCAGC
binding result: no binding
